Results on eight molecules are retold here after US20140120095A1 (Boehringer Ingelheim, published 2014).

For test [1], the target named is T1, human DLL4, full length, overexpressed on cells (human, UniProt Q9NR61 27-685). The test can be described thus: cell-based or functional assay.
For test [2], the target named is T1, human DLL4, full length, overexpressed …. Description: FMAT, hNotch1-Fc on CHO-hDLL4, -HSA.
Test [3] addresses T2, mouse DLL4, full length, overexpressed on CHO cells (mouse, UniProt Q9JI71 27-686).
T2 construct: whole, on cells; also called mDLL4; CHO-mDLL4
Description: FMAT, hNotch1-Fc on CHO-mDLL4, -HSA.

In test [4] the target is T1, human DLL4, full length, overexpressed …. The test can be described thus: FMAT, hNotch1-Fc on CHO-hDLL4, +25 uM HSA.
Test [5] concerns the target T2, mouse DLL4, full length, overexpressed …. Description: FMAT, hNotch1-Fc on CHO-mDLL4, +25 uM HSA.
Test [6] addresses T3, recombinant human VEGF165 (human, UniProt P15692-4 27-191, biotinylated in the competition assays).
T3 construct: Bought protein; also called hVEGF165; rhVEGF165
The test can be described thus: AlphaScreen, hVEGF165/hVEGFR1-Fc competition, -HSA.

Test [7] has as its target T3, recombinant human VEGF165. Description: AlphaScreen, hVEGF165/hVEGFR2-Fc competition, -HSA. For orientation: In Alpha technology, singlet oxygen from a donor bead excites a nearby acceptor bead.
Test [8] has as its target T3, recombinant human VEGF165. Description: AlphaScreen, hVEGF165/hVEGFR2-Fc competition, +5 uM HSA. As to the method:
These 2 competition assays are also performed after preincubation of the VHHs with 5 μM human serum albumin.

Test [9] addresses T4, recombinant human DLL4 (human, UniProt Q9NR61 25-522).
T4 construct: also called rhDLL4; hDLL4
The test can be described thus: binding ELISA, coated rhDLL4. The procedure:
(§1) In order to determine cross-reactivity to mouse DII4 a binding ELISA is performed. […] Wells are blocked with a casein solution (1% in PBS). VHHs are applied as dilution series and binding is detected using a mouse anti-myc (Roche) and an anti-mouse-AP conjugate (Sigma, St Louis, Mo., USA) (FIG. 7 A-H). As reference, binding to human DII4 is measured.
(ELISA stands for enzyme-linked immunosorbent assay.)

For test [10], the target named is T4, recombinant human DLL4. The test can be described thus: hDLL4 ELISA screen, periplasmic extract.
For test [11], the target named is T5, human DLL4 overexpressed on cells (human, UniProt Q9NR61 27-685).
T5 construct: full length human DLL4 on CHO or HEK293 cells; also called CHO-hDLL4; CHO-hDII4
The test can be described thus: competitive FMAT, hNotch1-Fc on CHO-hDLL4.

In test [12] the target is T4, recombinant human DLL4. The test can be described thus: competition AlphaScreen, biot-hDLL4/hNotch1-Fc. The procedure:
In brief, 1 nM biotinylated human DII4 is captured on streptavidin-coated donor beads (20 μg/mL), while 0.4 nM of the receptor human Notch1 (as a Fc fusion protein) is captured on anti-human Fc VHH-coated acceptor beads (20 μg/mL). Both loaded beads are incubated together with a dilution range of the competing VHH (FIG. 4 A-E).

The target in test [13] is T4, recombinant human DLL4. The test can be described thus: competition ELISA, biot-hDLL4 to coated hNotch1-Fc. From the text:
Residual binding of biotinylated human DII4 is detected using horseradish peroxidase (HRP) conjugated extravidin (Sigma, St. Louis, Mo., USA) (FIG. 3 A-C). Human DII4 is biotinylated as described above.

The target of the next test is T6, recombinant mouse DLL4 (mouse, UniProt Q9JI71 27-532).
T6 construct: extracellular domain; also called rmDLL4; mDLL4
T6 sequence (Q9JI71 27-532): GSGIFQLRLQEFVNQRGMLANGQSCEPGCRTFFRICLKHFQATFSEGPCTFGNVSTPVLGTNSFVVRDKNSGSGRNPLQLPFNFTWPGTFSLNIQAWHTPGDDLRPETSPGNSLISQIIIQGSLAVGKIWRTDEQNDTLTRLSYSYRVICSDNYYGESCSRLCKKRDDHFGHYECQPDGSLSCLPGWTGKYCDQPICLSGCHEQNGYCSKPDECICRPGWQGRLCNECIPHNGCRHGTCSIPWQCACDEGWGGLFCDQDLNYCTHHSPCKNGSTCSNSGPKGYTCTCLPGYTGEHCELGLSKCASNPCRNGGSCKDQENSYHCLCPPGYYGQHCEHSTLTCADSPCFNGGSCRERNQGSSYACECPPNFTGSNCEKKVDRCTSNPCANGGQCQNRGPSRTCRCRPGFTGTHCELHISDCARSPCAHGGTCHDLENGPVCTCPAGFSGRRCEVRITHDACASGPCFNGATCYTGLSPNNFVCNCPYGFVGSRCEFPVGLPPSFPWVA
The test can be described thus: binding ELISA on coated recombinant mouse DLL4, OD 405 nm. As to the method:
as §1

A further test addresses T7, human DLL1 (human, UniProt O00548 18-545, limits assumed).
T7 construct: also called hDLL1
T7 sequence (looked up): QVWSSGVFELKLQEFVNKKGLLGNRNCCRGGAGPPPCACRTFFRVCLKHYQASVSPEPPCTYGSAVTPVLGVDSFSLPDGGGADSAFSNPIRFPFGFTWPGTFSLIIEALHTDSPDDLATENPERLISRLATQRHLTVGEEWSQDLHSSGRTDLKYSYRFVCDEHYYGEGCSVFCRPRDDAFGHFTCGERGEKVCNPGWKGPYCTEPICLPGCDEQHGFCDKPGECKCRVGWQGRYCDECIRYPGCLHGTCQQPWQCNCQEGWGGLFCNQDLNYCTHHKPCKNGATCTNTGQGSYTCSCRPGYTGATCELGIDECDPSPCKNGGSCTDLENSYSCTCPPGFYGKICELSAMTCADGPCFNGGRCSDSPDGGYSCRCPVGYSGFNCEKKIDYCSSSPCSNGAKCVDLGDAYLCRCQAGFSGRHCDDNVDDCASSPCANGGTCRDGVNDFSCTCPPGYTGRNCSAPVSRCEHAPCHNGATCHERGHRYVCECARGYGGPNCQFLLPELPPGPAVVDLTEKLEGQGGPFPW
Description: binding ELISA on coated recombinant human DLL1, OD 405 nm. As to the method:
(§2) Absence of binding to homologous ligands human DLL1 and human Jagged-1 is assessed via solid phase binding assay (ELISA). In brief, human DLL1 (Alexis, San Diego, Calif., USA) and human Jagged-1 (Alexis, San Diego, Calif., USA) are coated overnight at 4° C. at 1 μg/mL in a 96-well MaxiSorp plate (Nunc, Wiesbaden, Germany). Wells are blocked with a casein solution (1% in PBS). VHHs are applied as dilution series and binding is detected using a mouse anti-myc (Roche) and an anti-mouse-AP conjugate (Sigma, St. Louis, Mo., USA).

In a further test the target is T8, human Jagged-1 (human, UniProt P78504 34-1067, limits assumed).
T8 construct: also called hJagged-1; hJAG1
Description: binding ELISA on coated recombinant human Jagged-1, OD 405 nm. As to the method:
as §2

T2 sequence (Q9JI71 27-686): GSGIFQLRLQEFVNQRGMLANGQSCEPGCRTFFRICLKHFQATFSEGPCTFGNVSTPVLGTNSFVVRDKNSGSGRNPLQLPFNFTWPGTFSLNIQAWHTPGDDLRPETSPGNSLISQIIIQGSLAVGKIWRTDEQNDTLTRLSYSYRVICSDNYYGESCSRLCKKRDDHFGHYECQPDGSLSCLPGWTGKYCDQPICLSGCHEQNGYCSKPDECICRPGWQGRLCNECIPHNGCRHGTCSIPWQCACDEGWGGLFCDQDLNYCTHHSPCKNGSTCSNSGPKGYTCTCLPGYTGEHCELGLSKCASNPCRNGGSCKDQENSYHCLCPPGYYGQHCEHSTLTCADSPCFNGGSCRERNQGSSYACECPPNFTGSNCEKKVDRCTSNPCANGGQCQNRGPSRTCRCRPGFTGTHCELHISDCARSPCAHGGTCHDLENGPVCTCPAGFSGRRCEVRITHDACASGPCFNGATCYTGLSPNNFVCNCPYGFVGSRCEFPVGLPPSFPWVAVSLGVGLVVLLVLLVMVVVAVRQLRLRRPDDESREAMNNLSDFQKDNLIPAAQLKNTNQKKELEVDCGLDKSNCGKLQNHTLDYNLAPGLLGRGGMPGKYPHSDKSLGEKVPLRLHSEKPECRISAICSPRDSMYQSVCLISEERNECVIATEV
T3 sequence (P15692 other isoform, or with tags, fused parts or gaps): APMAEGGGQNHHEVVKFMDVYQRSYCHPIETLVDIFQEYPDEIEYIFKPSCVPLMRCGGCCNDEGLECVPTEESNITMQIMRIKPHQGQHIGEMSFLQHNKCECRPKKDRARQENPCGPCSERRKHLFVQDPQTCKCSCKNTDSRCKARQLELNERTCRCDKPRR

B1: DLLBII129B05 (VHH, not shown: small tags and cut ends)
VHH: EVQLVESGGGLVQAGGSLRLSCAASGRTFSSYAMAWYRQAPGKEREYVAAIRWSGGTAYYADSVQGRFTISRDNAKNTVYLQMNSLKPEDTAVYYCANRAPDTRLAPYEYDHWGQGTQVTVSS
Usually IC50 stands for the point on the concentration scale where inhibition reaches its midpoint. As to B1, the “IC50, DLL4 mediated reporter assay, +HSA” value in test [1] was 88 nM. Moreover, the “% inh” value in [2] came to 90%; in test [3], 100%; in test [4], 90%; in test [5], 100%. Further, the IC50 was 3.2 nM in test [2], 3 nM in [3], 4.3 nM in test [4] and 3.7 nM in test [5].

B2: VEGFDLLBII012 (bispecific antibody)
chain: EVQLVESGGGLVQTGDSLRLSCEVSGRTFSSYSMGWFRQAQGKEREFVVAISKGGYKYDSVSLEGRFTISKDNAKNTVYLQINSLKPEDTAVYYCASSRAYGSSRLRLADTYEYWGQGTQVTVSSGGGGSGGGGSGGGGCGGGGSGGGGSGGGGSGGGGSEVQLVESGGGLVQPGGSLRLSCAASGFTFGSYDMSWVRRSPGKGPEWVSSINSGGGSTYYADYVKGRFTISRDNAKNTLYLQMNSLKPEDTAVYYCAADRYIWARQGEYWGAYEYDYWGQGTQVTVSS
modifications: PEGylated at the Cys at position 15 of the 35 Gly-Ser linker
notes: VEGFBII23B04 - 35GS(Cys15) - DLLBII136C07
B2: the “IC50, DLL4 mediated reporter assay, +HSA” value in test [1] was found to be 582 nM. The “% inh” value in test [2] stood at 100%; in test [3], 100%; in [4], 100%; in test [5], 100%; in [6] it was 60%; in [7], 100%. Moreover, the “% inh” value in [8] was determined as 100%. In addition, the half-inhibitory concentration (IC50) in test [2] was determined as 44.9 nM; in test [3], 95.3 nM; in test [4], 41.5 nM; in test [5], 103 nM; in test [6], 0.27 nM; in [7] it was 0.19 nM. Moreover, the IC50 in test [8] is 0.22 nM.

B3: DLLBII6B11 (VHH)
VHH: EVQLVESEGGLVQAGGSLRLSCAASGSTFSSYAMGWYRQAPGKQRELVAVISNGGITNYPNSVKGRFTISRDNAKNTVYLQMNSLKPEDTAVYYCFYSGSYYYPTDVHEYDYWGQGTQVTVSS
notes: also called DLLBII06B1
For orientation: EC50 means the midpoint of the concentration-response curve. As to B3, in the test with recombinant human DLL4 [9], the EC50 is 1.4 nM. Also, in the test with recombinant human DLL4 [10], the “% inh” value was found to be 98%. Also, the IC50 in test [11] amounted to 8.9 nM; in the test with recombinant human DLL4 [12] it was 0.3 nM; in the test with recombinant human DLL4 [13], 1.5 nM. For the same molecule, the binding result with recombinant mouse DLL4, in the test with human DLL1 and in the test with human Jagged-1 was “no binding (tested: 2.5e-7 M)” throughout.

B4: DLLBII07A02 (VHH)
VHH: EVQLVESGGGLVQAGGSLRLSCAASGSTFNSYAMGWYRQAPGKQREWVAAFSTGGSTNYADSVKGRFTISRDNAKNTVYLQMNSLKPEDTAVYYCFYSGSYYYPTDVFEYDYWGQGTQVTVSS
On to B4, for which the EC50 with recombinant human DLL4 [9] is 1.4 nM. For the same molecule, the IC50 in the test with recombinant human DLL4 [12] was found to be 0.4 nM. In addition, the binding result in the test with recombinant mouse DLL4, with human DLL1 and in the test with human Jagged-1 was “no binding (tested: 2.5e-7 M)” throughout.

B5: DLLBII05B11 (VHH)
VHH: EVQLVESGGGLVQPGGSLRLSCAISGFTLDLHVIGWLRQAPGKEREWVSCISSSDGSTYYADSVKGRFTISRDNAKNTVYLQMNSLKPEDTAVYYCAAPWDSWYCGIGNDYDYWGQGTQVTVSS
notes: also called DLLBII5B11
Turning to B5, the EC50 with recombinant human DLL4 [9] was 1.8 nM. Moreover, the “% inh” value with recombinant human DLL4 [10] worked out at 98%. Also, the IC50 with recombinant human DLL4 [12] was found to be 0.7 nM. For the same molecule, the binding result in the test with recombinant mouse DLL4, with human DLL1 and with human Jagged-1 was “no binding (tested: 2.5e-7 M)” throughout.

B6: DLLBII136C07 (VHH, not shown: small tags and cut ends)
VHH: EVQLVESGGGLVQPGGSLRLSCAASGFTFGSYDMSWVRRSPGKGPEWVSSINSGGGSTYYADYVKGRFTISRDNAKNTLYLQMNSLKPEDTAVYYCAADRYIWARQGEYWGAYEYDYWGQGTQVTVSS
Take B6: the “IC50, DLL4 mediated reporter assay, +HSA” value in [1] amounted to 103 nM. In addition, the “% inh” value in test [2] turned out to be 94%; in test [3], 100%; in [4] it was 94%; in test [5], 100%. The IC50 worked out at 6.8 nM in test [2], 16.4 nM in test [3], 7.1 nM in test [4] and 17.6 nM in [5].

B7: DLLBII08A09 (VHH)
VHH: EVQLVESGGGLVQPGGSLRLSCAASGFTLDYYNIGWFRQAPGKEREWVSCINSSDGSTYYADSVKGRFTISRDNAKNTVYLQMNSLKPEDTAVYYCAAPFAYYSNLCGVNGYDYWGQGTQVTVSS
notes: also called DLLBII8A09
As for B7, the EC50 with recombinant human DLL4 [9] stood at 0.9 nM. Further, the “% inh” value in the test with recombinant human DLL4 [10] stood at 96%. In addition, the IC50 was 5.5 nM in test [11] and 0.4 nM with recombinant human DLL4 [12]. The binding result in the test with recombinant mouse DLL4, with human DLL1 and with human Jagged-1 was “no binding (tested: 2.5e-7 M)” throughout.

B8: DLLBII07B05 (VHH)
VHH: EVQLVESGGGLVQAGGSLRLSCAASGFALDYYAVGWFRQAPGKEREGVSCISSRGGSTFYADSVKGRFTTSRNNAKNTVYLQMNSLKPEDTAVYYCAAHPLQNCCGGSAYASPEAVYEYWGQGTQVTVSS
notes: also called DLLBII7B05
Take B8: the 50% effective concentration (EC50) with recombinant human DLL4 [9] stood at 7.2 nM. Also, the “% inh” value with recombinant human DLL4 [10] is 84%. For the same molecule, the IC50 with recombinant human DLL4 [12] came to 1.1 nM. Moreover, the binding result with recombinant mouse DLL4, with human DLL1 and in the test with human Jagged-1 was “no binding (tested: 2.5e-7 M)” each time.
